Patent publication US20210023129A1, “PLATINUM PRODRUG PERFLUOROARYL PEPTIDE CONJUGATES” (MASSACHUSETTS INSTITUTE OF TECHNOLOGY, priority 2019, published 2021)
*1 amine or outer side, *2 acyl side, *3 side chain or, on linkers, in order; H or OH if unused. Where a SMILES comes first, the peptide text is derived from it. Bridges are numbered along the chain shown (N, C = ends). Perfluorobiphenyl(4,4') = Fc1c(F)c([*:1])c(F)c(F)c1-c1c(F)c(F)c([*:2])c(F)c1F; Suc = O=C(CCC(=O)[*:2])[*:1]

How the values were obtained:
[1] = tested on: G9 neurospheres (patient-derived glioma cells); conditions: for IC50: read-out: IC50 against the G9 cells, treated for 80 hours, CellTiter-Glo
Method: The cytotoxicity of the PtIV-M13 conjugate was evaluated against patient-derived glioma cells (GCs). To evaluate the in vitro efficacy of the conjugate, G9 neurospheres were treated with PtIV-M13, prodrug 4, and cisplatin for 80 hours. After treatment, the potency of the compounds was assessed by the CellTiter-Glo luminescent cell viability assay (FIGS. 2A and 2B). The assay involves lysis of the cells and quantitation of the amount of ATP present, which is directly proportional to the number of living cells in culture. […] The same experiment was repeated on G30 GCs.

[2] = tested on: G30 GCs (patient-derived glioma cells); experiment: CellTiter-Glo luminescent cell viability assay, G30 GCs; type: cell-based, human; conditions: same experiment as G9 (80 hours, CellTiter-Glo), read-out: IC50 (potency) on G30 GCs
Method: The cytotoxicity of the PtIV-M13 conjugate was evaluated against patient-derived glioma cells (GCs). To evaluate the in vitro efficacy of the conjugate, G9 neurospheres were treated with PtIV-M13, prodrug 4, and cisplatin for 80 hours. After treatment, the potency of the compounds was assessed by the CellTiter-Glo luminescent cell viability assay (FIGS. 2A and 2B). The assay involves lysis of the cells and quantitation of the amount of ATP present, which is directly proportional to the number of living cells in culture. […] However, prodrug 4 was not potent, perhaps due to an inability to enter cells (FIG. 2A). As a result, in the follow-up in vitro experiment with another GC line, PtIV-L13 was used as a control instead as this should have similar properties to the PtIV-M13, only without the perfluoroaryl. The same experiment was repeated on G30 GCs.

[3] = Pharmacokinetics in healthy mice: platinum in serum and brain by GFAAS; conditions: tail vein; for brain distribution of platinum over time / serum concentration of platinum over time: 100 μL of 100 μM (~2.5 mg/kg), 1, 2.5 and 5 hours
Method: Pharmacokinetic and biodistribution studies were performed in healthy mice. For pharmacokinetics, 100 μL of a 100 μM solution of PtIV-M13 or PtIV-L13 dissolved in saline (corresponding to a dose of ˜2.5 mg/kg) were injected into the tail veins of mice. The brain and a blood sample were isolated at 1, 2.5, and 5 hours. A portion of the brain was dissolved in nitric acid and the amount of platinum in the brain and serum were quantified by GFAAS. […] The error bars are the standard deviation from three different animals injected with the compound. […] The error bars are the standard deviation from three different animals injected with the compound.

[4] = Biodistribution in mice: platinum in organs by GFAAS; conditions: tail vein, 100 μL of 100 μM in saline, after five hours
Method: To study the biodistribution, 100 μL of a 100 μM solution of PtIV-M13, PtIV-L13, or cisplatin dissolved in normal saline were injected into the tail vein of mice. After five hours, the mice were sacrificed and the brain, heart, lungs, kidney, spleen and liver were removed. The amount of platinum in each organ was measured by dissolving a portion of the respective organ in nitric acid and then quantifying the amount of platinum by GFAAS (supporting information).

Compound | IC50 against the G9 cells ([1]; treated for 80 hours, CellTiter-Glo) | IC50 [1] | IC50 [2] | brain distribution of platinum over time [3] | serum concentration of platinum over time [3] | brain uptake versus linear control PtIV-L13 ([3]; ~2.5 mg/kg, brain platinum read-out) | stability in serum versus linear control PtIV-L13 ([3]; ~2.5 mg/kg, serum platinum read-out) | increase in the amount of platinum in the brain compared with cisplatin [4]
CCCCNC(=O)[O][Pt]([NH2])([NH2])([Cl])([Cl])[O]C(=O)CCC(=O)O [prodrug 4] | not potent | – | – | – | – | – | – | –
N.N.[Cl][Pt][Cl] [cisplatin, reference compound] | – | 4.34 ± 0.66 µM | – | – | – | – | – | –
CC[C@H](C)[C@H](NC(=O)[C@H](CCCCN)NC(=O)CNC(=O)[C@H](CC(C)C)NC(=O)[C@H](CC(C)C)NC(=O)[C@H](Cc1ccc(O)cc1)NC(=O)CNC(=O)[C@H](C)NC(=O)CCC(=O)O)C(=O)N[C@@H](CC(N)=O)C(=O)N[C@@H](CC(C)C)C(=O)N[C@@H](CCCCN)C(=O)N[C@@H](C)C(=O)N[C@@H](CO)C(=O)N[C@@H](C)C(=O)N[C@@H](C)C(=O)N[C@@H](CC(C)C)C(=O)N[C@@H](C)C(=O)N[C@@H](CCCCN)C(=O)N[C@@H](CCCCN)C(=O)N[C@@H](CO)C(=O)N[C@@H](CC(C)C)C(N)=O [PtIV-L13] (Suc-AGYLLGKINLKASAALAKKSL-NH2) | – | – | 28.8 µM | increased over time | decreased over time | – | – | –
CC[C@H](C)[C@H](NC(=O)[C@H](CCCCN)NC(=O)CNC(=O)[C@H](CC(C)C)NC(=O)[C@H](CC(C)C)NC(=O)[C@H](Cc1ccc(O)cc1)NC(=O)CNC(=O)[C@H](C)NC(=O)CCC(=O)O)C(=O)N[C@@H](CC(N)=O)C(=O)N[C@@H](CC(C)C)C(=O)N[C@@H](CCCCN)C(=O)N[C@@H](C)C(=O)N[C@H]1CSc2c(F)c(F)c(c(F)c2F)-c2c(F)c(F)c(c(F)c2F)SC[C@@H](C(=O)N[C@@H](CC(C)C)C(N)=O)NC(=O)[C@H](CCCCN)NC(=O)[C@H](CCCCN)NC(=O)[C@H](C)NC(=O)[C@H](CC(C)C)NC(=O)[C@H](C)NC(=O)[C@H](C)NC1=O [PtIV-M13] (Suc-AGYLLGKINLKACAALAKKCL-NH2; linker 13-20 via Perfluorobiphenyl(4,4')) | – | 4.51 ± 0.22 µM | 4.04 µM | increased over time | decreased over time | more brain uptake | more stable in serum | 15 fold
